Source: patent US6958236B2, “Control of gene expression in plants” (priority 2000, dated 2005)

B1: DBV: EcR chimera: Drosophila melanogaster C+D domains, black cutworm E domain, VP16; SEQ ID NO:73-74 (protein)
chain: MGRDDLSPSSSLNGYSANESCDAKKSKKGPAPRVQEELCLVCGDRASGYHYNALTCEGCKGFFRRSVTKSAVYCCKFGRACEMDMYMRRKCQECRLKKCLAVGMRPECVVPENQCAMKRREKKAQKEKDKMTTSPSSQHGGNGSLASGGGQDFVKKEILDLMTCEPPQHATIPLLPDEILAKCQARNIPSLTYNQLAVIYKLIWYQEGYEQPSEEDLKRVTQTWQSDEDEEESDMPFRQITEMTILTVQLIVEFAKGLPGFAKISQSDQITLLKACSSEVMMLRVARRYDAATDSVLFANNQAYSRDNYRKAGMSYVIEDLLHFCRCMYSMMMDNVHYALLTAIVIFSDRPGLEQPLLVEEIQRYYLNTLRVYILNQNSASPRCPVVFAKILGILTELRTLGMQNSNMCISLKLKNRKLPPFLEEIWDVESRGKLAPPTDVSLGDELHLDGEDVAMAHADALDDFDLDMLGDGDSPGPGFTPHDSAPYGALDMADFEFEQMFTDALGIDEYGG
B2: CCV: EcR chimera: Chironomus tentans C+D and E domains, VP16; SEQ ID NO:87-88 (protein)
chain: MKLDDGNMSVHMGDGLDGKKSSSKKGPVPRQQEELCLVCGDRASGYHYNALTCEGCKGFFRRSVTKNAVYCCKFGHECEMDMYMKRKCQECRLKKCLAVGMRPECVVPENQCAIKRKEKKAQKEKDKVPGIVGSNTSSSSLLNQSLNNGSLKNLEISYREELLEQLMKCDPPPHPMQQLLPEKLLMENRAKGTPQLTANQVAVIYKLIWYQDGYEQPSEEDLKRITTELEEEEDQEHEANFRYITEVTILTVQLVVEFAKGLPAFIKIPQEDQITLLKACSSEVMMLRMARRYDHDSDSILFANNTAYTKQTYQLAGMEETIDDLLHFCRQMYALSIDNVEYALLTAIVIFSDRPGLEKAEMVDIIQSYYTETLKVYIANRHGGESRCSVQFAKLLGILTELRTMGNKNSEMCFSLKLRNRKLPRFLEEVWDVGDVKLAPPTDVSLGDELHLDGEDVAMAHADALDDFDLDMLGDGDSPGPGFTPHDSAPYGALDMADFEFEQMFTDALGIDEYGG
B3: MEV: EcR chimera: Manduca sexta C+D domains, European corn borer (Ostrinia nubilalis) E domain, VP16; SEQ ID NO:67-68 (protein)
chain: MGREELSPASSINGCSTDGEPRRQKKGPAPRQQEELCLVCGDRASGYHYNALTCEGCKGFFRRSVTKNAVYICKFGHACEMDMYMRRKCQECRLKKCLAVGMRPECVVPESTCKNKRREKEAQREKDKLPVSTTTVDDHMPAIMQCDPPPPEAARIHEVVPRFLTEKLMEQNRLKNVTPLSANQKSLIARLVWYQDGYEQPSEEDLKRVTQTWQSADEEDEDSDMPFRQITEMTILTVQLIVEFAKGLPGFSKISQPDQITLLKACSSEVMMLRVARRYDAVSDSVLFANNQAYTRDNYRKAGMAYVIEDLLHFCRCMYSMSMDNVHYALLTAIVIFSDRPGLEQPQLVEEIQRYYLNTLRVYIMNQHSASPRCAVIYAKILSVLTELRTLGMQNSNMCISLKLKNRKLPPFLEEIWDVKLAPPTDVSLGDELHLDGEDVAMAHADALDDFDLDMLGDGDSPGPGFTPHDSAPYGALDMADFEFEQMFTDALGIDEYGG
B4: MBV: EcR chimera: Manduca sexta C+D domains, black cutworm (Agrotis ipsilon) E domain, VP16; SEQ ID NO:65-66 (protein)
chain: MGREELSPASSINGCSTDGEPRRQKKGPAPRQQEELCLVCGDRASGYHYNALTCEGCKGFFRRSVTKNAVYICKFGHACEMDMYMRRKCQECRLKKCLAVGMRPECVVPESTCKNKRREKEAQREKDKLPVSTTTVDDHMPAIMQCDPPPPEAARIHEVVPRFLTEKLMEQNRLKNVTPLSANQKSLIARLVWYQEGYEQPSEEDLKRVTQTWQSDEDEEESDMPFRQITEMTILTVQLIVEFAKGLPGFAKISQSDQITLLKACSSEVMMLRVARRYDAATDSVLFANNQAYSRDNYRKAGMSYVIEDLLHFCRCMYSMMMDNVHYALLTAIVIFSDRPGLEQPLLVEEIQRYYLNTLRVYILNQNSASPRCPVVFAKILGILTELRTLGMQNSNMCISLKLKNRKLPPFLEEIWDVESRGKLAPPTDVSLGDELHLDGEDVAMAHADALDDFDLDMLGDGDSPGPGFTPHDSAPYGALDMADFEFEQMFTDALGIDEYGG
B5: EBV (protein)
chain: MGREELSPASSVNGCSTDGEARRQKKGPAPRQQEELCLVCGDRASGYHYNALTCEGCKGFFRRSVTKNAVYICKFGHACEMDMYMRRKCQECRLKKCLAVGMRPECVVPETQCAQKRKEKKAQREKDKLPVSTTTVDDHMPPIMQCDPPPPEAARILECLQHEVVPRFLSEKLMEQNRLKNIPPLTANQQFLIARLVWYQEGYEQPSEEDLKRVTQTWQSDEDEEESDMPFRQITEMTILTVQLIVEFAKGLPGFAKISQSDQITLLKACSSEVMMLRVARRYDAATDSVLFANNQAYSRDNYRKAGMSYVIEDLLHFCRCMYSMMMDNVHYALLTAIVIFSDRPGLEQPLLVEEIQRYYLNTLRVYILNQNSASPRCPVVFAKILGILTELRTLGMQNSNMCISLKLKNRKLPPFLEEIWDVESRGKLAPPTDVSLGDELHLDGEDVAMAHADALDDFDLDMLGDGDSPGPGFTPHDSAPYGALDMADFEFEQMFTDALGIDEYGG
B6: MFV: EcR chimera: Manduca sexta C+D domains, fall armyworm (Spodoptera frugiperda) E domain, VP16; SEQ ID NO:69-70 (protein)
chain: MGREELSPASSINGCSTDGEPRRQKKGPAPRQQEELCLVCGDRASGYHYNALTCEGCKGFFRRSVTKNAVYICKFGHACEMDMYMRRKCQECRLKKCLAVGMRPECVVPESTCKNKRREKEAQREKDKLPVSTTTVDDHMPAIMQCDPPPPEAARIHEVVPRFLTEKLMEQNRLKNVTPLSANQKSLIARLVWYQEGYEQPSEEDLKRVTQTWQLEEEEEEETDMPFRQITEMTILTVQLIVEFAKGLPGFSKISQSDQITLLKASSSEVMMLRVARRYDAATDSVLFANNQAYTRDNYRKAGMSYVIGDLLHFCRCMYSMSMDNVHYALLTAIVIFSDRPGLEQPLLVEEIQRYYLKTLRVYILNQYSASPRCAVLFGKILGVLTELRTLGTQNSNMCISLKLKNRKLPPFLEEIWDVKLAPPTDVSLGDELHLDGEDVAMAHADALDDFDLDMLGDGDSPGPGFTPHDSAPYGALDMADFEFEQMFTDALGIDEYGG

System: pCGS154 reporter
Test: Transient transfection of S2 Drosophila cells with luciferase reporter and EcR receptor plasmids
Type: cell-based
Method: An in vivo cell based assay is designed to measure transcriptional activation by the receptors of a reporter plasmid. S2 Drosophila cells (ATCC CRL-1963) are transiently transfected with luciferase reporter and receptor expression plasmids using the calcium phosphate precipitation procedure (Di Nocera and David (1983) PNAS 80, 7095-7098). S2 cells are plated in 96 well format at a density of 2×10^5 in 166.6 μl of Schneider's Drosophila media supplemented with antibiotics and 10% heat inactivated fetal bovine serum (GIBO-BRL). The following day, 33.4 μl of a calcium phosphate precipitate containing 3-6 ng of pCGS154 reporter plasmid, 3-6 ng of EcR receptor plasmid along with salmon sperm DNA to a total of 400 ng DNA per well is added. Chemical ligands are added 16-24 hours after DNA addition to the cells. Cells are then harvested and extracted 24 hours after chemistry addition following the procedures for the luciferase assay by centrifuging and resuspending the cell pellets in 100 μl of cell culture lysis reagent (Promega). Luciferase activity is quantitated using chemiluminescence (Promega) using an analytical luminescence model 2001 luminometer.
S2 cells contain Drosophila EcR and USP. The endogenous USP can be used as the heterodimerization partner for EcR or exogenous USP expression plasmid can be added to the assay.
To compare the activities of Manduca and Drosophila EcR, S2 cells are transiently transfected using the above procedure with the reporter plasmid pCGS 154 and either full-length Drosophila EcR, DDV, full-length Manduca EcR, or MMV. Tebufenozide at 0.2 µM and 2 μM is used as the chemical ligand. Luciferase assays are performed as described above. All of the results are normalized as a ratio of activity to the light unit value for the pCGS154 reporter without chemistry.
The activities of the EcR-VP16 chimeras are compared by transiently transfecting S2 cells as described in Example 3. Tebufenozide is added to the cells at 0.2 μM concentration. Results are expressed as fold activation, a ratio of the activity of the constructs with chemistry added as compared to activity of the constructs without chemistry. All results are normalized to the luciferase activity of the pCGS154 reporter without receptor addition.
(§1) The activities of the EcR-VP16 chimeras are compared by transiently transfecting S2 cells as in Example 3. Tebufenozide is added to the cells at 0.2 μM concentration. Results are expressed as fold activation of constructs with chemistry as compared to without chemistry. All results are normalized to the luciferase activity of the pCGS154 reporter without receptor.
as §1, with “chemistry addition.” for “chemistry.”

| Molecule | Fold Activation With Chemistry Assay #1 (Example 8, 0.2 μM tebufenozide) | Fold Activation With Chemistry Assay #2 (Example 8, 0.2 μM tebufenozide) | Fold Activation With Chemistry (Example 9, 0.2 μM tebufenozide) | Fold Activation With Chemistry Assay #1 (Example 7, 0.2 μM tebufenozide) | Fold Activation With Chemistry Assay #2 (Example 7, 0.2 μM tebufenozide) |
| --- | --- | --- | --- | --- | --- |
| B1 | 17.37 fold | 3.94 fold |  |  |  |
| B2 |  |  | 2.0 fold |  |  |
| B3 |  |  |  | 363.7 fold | 131.5 fold |
| B4 | 559.1 fold | 866.7 fold |  | 215.7 fold | 211.1 fold |
| B5 | 975.0 fold | 273.7 fold |  |  |  |
| B6 |  |  |  | 159.9 fold | 175.4 fold |
